Laboratory results: the Human Domainome abundance scans (Beltran et al. 2025)
± gives the uncertainty stated by the source.

B1: RanBP-type and C3HC4-type zinc finger-containing protein 1, residues 369 to 411; numbered along this chain, Q9BYM8 (parent)
chain: YHCKTPDCKGWCFFEDDVNEFTCPVCFHVNCLLCKAIHEQMNC

Variants of: B1
Assay: abundance fitness (aPCA) (normalised: wild type 0, dead -1); higher = more abundant; growth selection in yeast, the domain comes from the species named
Details: Homo sapiens

Variant	abundance fitness
YHCKTPDCKGWCFFEVDVNEFTCPVCFHVNCLLCKAIHEQMNC	-0.075 ± 0.049
YHCKTPDCKGWCFFEDDVNEFTTPVCFHVNCLLCKAIHEQMNC	-0.761 ± 0.076
YHCKTPDCKGWCFFEDDVNEFTCPVCFHVNCLLTKAIHEQMNC	-0.547 ± 0.068
YHCKTPDCKGWCFFEDDVNEFTCPVCFHVNCLLCKAIHEQMNI	-0.511 ± 0.11
YHCKTPDCKGWCFFEDDVNEFTCPVCFHVNCLLCKAIHEQMTC	0.069 ± 0.063
YHCKTPDCKGWCFFEDDVYEFTCPVCFHVNCLLCKAIHEQMNC	-0.172 ± 0.23
YHCKTPPCKGWCFFEDDVNEFTCPVCFHVNCLLCKAIHEQMNC	-0.615 ± 0.11
YHCKTPDCKGWCFFEDDVNEFTCPVCFHVNCLLCKAIHEQINC	-0.112 ± 0.069
YHCKTPDCKGWCFFEDDVNEFTCPVCFHVNCLLCCAIHEQMNC	-0.069 ± 0.1
YHCKTPDCKGWCFFEDDVNEFTCPVCFHVNCLLCKAIHEQMEC	0.075 ± 0.055
YHCKTPDCKGWCFFEDDVNEFTCPVCFHVICLLCKAIHEQMNC	-0.835 ± 0.29
YHCKTPDCKGWCFFEDDVNEFTCPVCFHVNCLLCKAIFEQMNC	-0.59 ± 0.19
YHCKTPRCKGWCFFEDDVNEFTCPVCFHVNCLLCKAIHEQMNC	-0.117 ± 0.036
YHCKTPDCKGWCFFEDDVNEKTCPVCFHVNCLLCKAIHEQMNC	-0.285 ± 0.093
YHCKTPDCKGDCFFEDDVNEFTCPVCFHVNCLLCKAIHEQMNC	-0.162 ± 0.064
YHCKTPDCKGWCFFIDDVNEFTCPVCFHVNCLLCKAIHEQMNC	-0.187 ± 0.24
YHCKTDDCKGWCFFEDDVNEFTCPVCFHVNCLLCKAIHEQMNC	-0.343 ± 0.075
YHCKTPDCSGWCFFEDDVNEFTCPVCFHVNCLLCKAIHEQMNC	0.045 ± 0.041
YHCKTPDCKGWCFFEDDVNEFTCPVCFHVNCLLCKAIHEQMYC	-0.122 ± 0.14
YHCKTPDCKGWCFFEDDVNEWTCPVCFHVNCLLCKAIHEQMNC	0.083 ± 0.05

Variant	abundance fitness
YHCKTPDCKGWCFFEDDVNEFTCPVCHHVNCLLCKAIHEQMNC	0.155 ± 0.057
YHCKTPDCKGWCFFEDDVNEFTCPVCFHVNCLLCKAIHSQMNC	-0.09 ± 0.051
YHCKTPDCKGWCFFEDDVNEFTCPVCFHVNCLLCKAIHEQVNC	-0.008 ± 0.043
YHCKTPDCKGWCFFEDDVNEFTCPVCFHVNCLLCKAIHEFMNC	-0.54 ± 0.12
YHCKTPDCKGWCFFEDDVNEFTCCVCFHVNCLLCKAIHEQMNC	-0.658 ± 0.067
CHCKTPDCKGWCFFEDDVNEFTCPVCFHVNCLLCKAIHEQMNC	-0.509 ± 0.11
YHCKTPDCKGWCFFEDDVNEFTCPVCFHVNCLLCKAIHEEMNC	0.107 ± 0.054
YHCKTPDCKGWCFFEDDVNEFTCPVKFHVNCLLCKAIHEQMNC	-0.834 ± 0.095
YHCKTPDCKGWCFFEDDVNEFTQPVCFHVNCLLCKAIHEQMNC	-0.621 ± 0.058
YHCKTPDCKGWCFFEDDVNEFTCPVCGHVNCLLCKAIHEQMNC	0.115 ± 0.038
YHCKTPDCKGWCFFEDDVNEFTCPVCFHVNCLLCKAIHEQMCC	-0.005 ± 0.094
YHCKTPDCKGWCFFEDDVNEFTCPVCFHVNCLLCKAIHVQMNC	-0.155 ± 0.048
YHCATPDCKGWCFFEDDVNEFTCPVCFHVNCLLCKAIHEQMNC	0.012 ± 0.041
YHCKLPDCKGWCFFEDDVNEFTCPVCFHVNCLLCKAIHEQMNC	-0.004 ± 0.057
YHCKTPDCWGWCFFEDDVNEFTCPVCFHVNCLLCKAIHEQMNC	-0.105 ± 0.05
YHCKTPDCKGWCFFEDDVNEFTCPVCFHVNCLLCKAIHEQKNC	0.101 ± 0.052
YHCKTPDCKGVCFFEDDVNEFTCPVCFHVNCLLCKAIHEQMNC	0.116 ± 0.047
YHCKTPDCKGPCFFEDDVNEFTCPVCFHVNCLLCKAIHEQMNC	-0.529 ± 0.049
YHGKTPDCKGWCFFEDDVNEFTCPVCFHVNCLLCKAIHEQMNC	-0.826 ± 0.044
YHCKTPDCKGWCFFEDDNNEFTCPVCFHVNCLLCKAIHEQMNC	-0.267 ± 0.083

Variant	abundance fitness
YHCKTPDCKGWCFFEDDVNNFTCPVCFHVNCLLCKAIHEQMNC	-0.276 ± 0.1
YHCKTPDCKGWCFFEDDVNEFTCPVCFHVNSLLCKAIHEQMNC	-0.438 ± 0.043
YHCKTPDCKGWCFFEDDVNEFTCPVCFHVPCLLCKAIHEQMNC	-0.784 ± 0.11
YHCKTPDCKGRCFFEDDVNEFTCPVCFHVNCLLCKAIHEQMNC	0.036 ± 0.039
YHCKTPDCKGWCFFEDDVNQFTCPVCFHVNCLLCKAIHEQMNC	-0.206 ± 0.054
YHCKTPDCKGWCFFEADVNEFTCPVCFHVNCLLCKAIHEQMNC	0.006 ± 0.051
YHCKTPDCKNWCFFEDDVNEFTCPVCFHVNCLLCKAIHEQMNC	-0.79 ± 0.16
YHCKTPDCKGWCFFEDDVNEFTCVVCFHVNCLLCKAIHEQMNC	-0.774 ± 0.066
YHCKTPDCKGWCFFEDDVNEFTCPVCFHVNCLLCKAIHLQMNC	-0.106 ± 0.057
YHCKTPDCKGWCFFEDDVNEFTCPVCWHVNCLLCKAIHEQMNC	-0.147 ± 0.047
YHCKTPDCKGWCFFEDDVNEFTCPVCFHVNCLLCKAIHETMNC	0.068 ± 0.045
YHCKTPDCKGWCFFEQDVNEFTCPVCFHVNCLLCKAIHEQMNC	0.045 ± 0.059
YHCKTPDCKGWCFFEDDVNEFTCPVCFHVNCLLCKARHEQMNC	-0.145 ± 0.039
YHCKTPDCKGWCFFEDDVNEPTCPVCFHVNCLLCKAIHEQMNC	-0.688 ± 0.067
YHCKTPDCKGWCFFEDMVNEFTCPVCFHVNCLLCKAIHEQMNC	-0.256 ± 0.11
YHCKTPDCKGWCFFEDDVNEFTCPVCFHVNCMLCKAIHEQMNC	-0.264 ± 0.087
YHCKTPDCKGWCFFEDDVNEFTCPVCFHWNCLLCKAIHEQMNC	-0.319 ± 0.074
YHCKTPDCKGWCFFEDDVNEFTCPVCFHVNCLLCKAIPEQMNC	-0.611 ± 0.084
YHCKTPDCKGWCFFEDDVNEFTCPVCFHVNCLLCKAFHEQMNC	-0.412 ± 0.086
